We go through nine proteins from PMC6026032.

What all share (conditions): glycan lost; control: wild type
The nature of series [1]: co-IP from conditioned medium.
Series [2] in a line: native gel electrophoresis, HA immunoblot.
Series [3] is described as follows: immunoblot of HEK293T conditioned medium.

B1: Cbln4: Cbln4N26Q (protein)
parent chain: MGSARRALSVVPAVLLILVLPVWAQNDTEPIVLEGKCLVVCDSNPATDSKGSSSSPLGISVRAANSKVAFSAVRSTNHEPSEMSNKTRIIYFDQILVNVGNFFTLESVFVAPRKGIYSFSFHVIKVYQSQTIQVNLMLNGKPVISAFAGDKDVTREAATNGVLLYLDKEDKVYLKLEKGNLLGGWQYSTFSGFLVFPL
With B1, the values for the oligomerisation result in series [1] and in series [2] were “no change” and “changes”, respectively.

B2: Cbln4: Cbln4N85Q (protein)
parent chain: MGSARRALSVVPAVLLILVLPVWAQNDTEPIVLEGKCLVVCDSNPATDSKGSSSSPLGISVRAANSKVAFSAVRSTNHEPSEMSNKTRIIYFDQILVNVGNFFTLESVFVAPRKGIYSFSFHVIKVYQSQTIQVNLMLNGKPVISAFAGDKDVTREAATNGVLLYLDKEDKVYLKLEKGNLLGGWQYSTFSGFLVFPL
In the case of B2, the oligomerisation entry in series [1] and in series [2] was “no change” throughout.

B3: Cbln1: N23Q (protein)
parent chain: MLGVVELLLLGTAWLAGPARGQNETEPIVLEGKCLVVCDSNPTSDPTGTALGISVRSGSAKVAFSAIRSTNHEPSEMSNRTMIIYFDQVLVNIGNNFDSERSTFIAPRKGIYSFNFHVVKVYNRQTIQVSLMLNGWPVISAFAGDQDVTREAASNGVLIQMEKGDRAYLKLERGNLMGGWKYSTFSGFLVFPL
As for B3, in series [3], the expression_or_secretion result is listed as “no change”.

B4: Cbln1: Cbln1N23Q (protein)
parent chain: MLGVVELLLLGTAWLAGPARGQNETEPIVLEGKCLVVCDSNPTSDPTGTALGISVRSGSAKVAFSAIRSTNHEPSEMSNRTMIIYFDQVLVNIGNNFDSERSTFIAPRKGIYSFNFHVVKVYNRQTIQVSLMLNGWPVISAFAGDQDVTREAASNGVLIQMEKGDRAYLKLERGNLMGGWKYSTFSGFLVFPL
Turning to B4, the oligomerisation entry in series [1] and in series [2] was “no change” throughout.

B5: Cbln1: Cbln1N79Q (protein)
parent chain: MLGVVELLLLGTAWLAGPARGQNETEPIVLEGKCLVVCDSNPTSDPTGTALGISVRSGSAKVAFSAIRSTNHEPSEMSNRTMIIYFDQVLVNIGNNFDSERSTFIAPRKGIYSFNFHVVKVYNRQTIQVSLMLNGWPVISAFAGDQDVTREAASNGVLIQMEKGDRAYLKLERGNLMGGWKYSTFSGFLVFPL
As to B5, the oligomerisation entry in series [1] and in series [2] was “no change” each time.

B6: Cbln1: N79Q (protein)
parent chain: MLGVVELLLLGTAWLAGPARGQNETEPIVLEGKCLVVCDSNPTSDPTGTALGISVRSGSAKVAFSAIRSTNHEPSEMSNRTMIIYFDQVLVNIGNNFDSERSTFIAPRKGIYSFNFHVVKVYNRQTIQVSLMLNGWPVISAFAGDQDVTREAASNGVLIQMEKGDRAYLKLERGNLMGGWKYSTFSGFLVFPL
As for B6, the expression_or_secretion result in series [3] was “no change”.

B7: Cbln2: N110Q (protein)
parent chain: MPAPGQGPRGPLLSMPGRRGALREPADFGSSLGAVLALLLLLLPACCPVRAQNDTEPIVLEGKCLVVCDSSPSGDGAVTSSLGISVRSGSAKVAFSATRSTNHEPSEMSNRTMTIYFDQVLVNIGNHFDLASSIFVAPRKGIYSFSFHVVKVYNRQTIQVSLMQNGYPVISAFAGDQDVTREAASNGVLLLMEREDKVHLKLERGNLMGGWKYSTFSGFLVFPL
Take B7: the expression_or_secretion entry in series [3] was “no change”.

B8: Cbln2: Cbln2N110Q (protein)
parent chain: MPAPGQGPRGPLLSMPGRRGALREPADFGSSLGAVLALLLLLLPACCPVRAQNDTEPIVLEGKCLVVCDSSPSGDGAVTSSLGISVRSGSAKVAFSATRSTNHEPSEMSNRTMTIYFDQVLVNIGNHFDLASSIFVAPRKGIYSFSFHVVKVYNRQTIQVSLMQNGYPVISAFAGDQDVTREAASNGVLLLMEREDKVHLKLERGNLMGGWKYSTFSGFLVFPL
For B8, the oligomerisation result in series [2] is “no change”.

B9: Cbln2: Cbln2N53Q (protein)
parent chain: MPAPGQGPRGPLLSMPGRRGALREPADFGSSLGAVLALLLLLLPACCPVRAQNDTEPIVLEGKCLVVCDSSPSGDGAVTSSLGISVRSGSAKVAFSATRSTNHEPSEMSNRTMTIYFDQVLVNIGNHFDLASSIFVAPRKGIYSFSFHVVKVYNRQTIQVSLMQNGYPVISAFAGDQDVTREAASNGVLLLMEREDKVHLKLERGNLMGGWKYSTFSGFLVFPL
In the case of B9, the oligomerisation result in series [2] is recorded as “no change”.
